# Experimental data taken from patent US7030099B2, “Tumor specific promoters of the midkine gene that allow for selective expression in P53-inactivated cells” (Research Corporation Technologies, Inc., priority 2000, dated 2006).
# B1: p344: c-erbB-2 genomic region −306/+38, SEQ ID NO: 8 (nucleic acid, listed as Homo sapiens)
# DNA: CTAGGGAATTTATCCCGGACTCCGGGGGAGGGGGCAGAGTCACCAGCCTCTGCATTTAGGGATTCTCCGAGGAAAAGTGTGAGAACGGCTGCAGGCAACCCAGGCGTCCCGGCGCTAGGAGGGACGACCCAGGCCTGCGCGAAGAGAGGGAGAAAGTGAAGCTGGGAGTTGCCGACTCCCAGACTTCGTTGGAATGCAGTTGGAGGGGGCGAGCTGGGAGCGCGCTTGCTCCCAATCACAGGAGAAGGAGGAGGTGGAGGAGGAGGGCTGCTTGAGGAAGTATAAGAATGAAGTTGTGAAGCTGAGATTCCCCTCCATTGGGACCGGAGAAACCAGGGGAGCCC
# B2: p124: c-erbB-2 genomic region −86/+38, SEQ ID NO: 10 (nucleic acid, listed as Homo sapiens)
# DNA: CGCGCTTGCTCCCAATCACAGGAGAAGGAGGAGGTGGAGGAGGAGGGCTGCTTGAGGAAGTATAAGAATGAAGTTGTGAAGCTGAGATTCCCCTCCATTGGGACCGGAGAAACCAGGGGAGCCC
# modifications: expressed or natural sequence
# B3: p533: c-erbB-2 genomic region from −435 to +38, SEQ ID NO: 7; conventionally used promoter (nucleic acid, listed as Homo sapiens)
# DNA: GGGGGTCCTGGAAGCCACAAGGTAAACACAACACATCCCCCTCCTTGACTATCAATTTTACTAGAGGATGTGGTGGGAAAACCATTATTTGATATTAAAACAAATAGGCTTGGGATGGAGTAGGATGCAAGCTCCCCAGGAAAGTTTAAGATAAAACCTGAGACTTAAAAGGGTGTTAAGAGTGGCAGCCTAGGGAATTTATCCCGGACTCCGGGGGAGGGGGCAGAGTCACCAGCCTCTGCATTTAGGGATTCTCCGAGGAAAAGTGTGAGAACGGCTGCAGGCAACCCAGGCGTCCCGGCGCTAGGAGGGACGACCCAGGCCTGCGCGAAGAGAGGGAGAAAGTGAAGCTGGGAGTTGCCGACTCCCAGACTTCGTTGGAATGCAGTTGGAGGGGGCGAGCTGGGAGCGCGCTTGCTCCCAATCACAGGAGAAGGAGGAGGTGGAGGAGGAGGGCTGCTTGAGGAAGTATAAGAATGAAGTTGTGAAGCTGAGATTCCCCTCCATTGGGACCGGAGAAACCAGGGGAGCCC
# B4: MK1.0: 1.0 kb of the human midkine genomic gene, base sequence SEQ ID NO: 2 (nucleic acid, listed as Homo sapiens)
# DNA: GGCCGCGCTCGTCGGGGCCGGGCGGGGGCCGATCCCTCCGGCTTCCCTTCCCGCGGAGAACAACAATGAAAGTGAAAGAGGGGTGGGGCGGGGGCGAGCCCGGGTTCTGTGGCCCATTTGCCCTGTGGCCTTGAGCAAGCCCCTCCCCCAGGCCTCGGGGGCTCTCCCGGTTTGGGGGAACCGGGCGAGGCAATGCCACAGGCCCAGGGTTAGAGGGGGTGGGCACTTGCAGCTGCCGATGTGGCTGGATCTGGAACTTCTCAGACGGCTCCTGTCAGCGCCAAGTTTCACCAAATCCAGGCCTGCGGGCTCCTCCCCCAGGACCCCCACTCGCAGTCCCTCAAGCCTGTGCTCCCGGAAAGGCACTGGGCGACCGCACCCGTGGCTTTCTCTGGGCGACCGGGTCCCAGACTCCCCCCAGCACAGCAGAGCGCTTCCCTGCCCACCCGCGGAAACCGCCCCAGGTGGCCGCGCCCCCTCCCCAGCAGCCAGCAGGGCGCCAGGGCTGAGCCGGCCGTGGAGGGGAGCGGGTCCCGGGGGTTATACAGGCGCCGGGCGTCCGCGGCAGGCAAGAGAAGCTGAGGCCTGAGAACGGCCCGGGCCTTGGCGTACGGCAGGGGACGACCTGGGATGGGGGCAGCGGGCGGCGGCGCAGGGAGTGGGCCGGGGCCGGTGTGCGCGGGCGGGACGGGGCCGGGGTCGGGAGACCACCGCTCGGAAGATGGGGCCGGGAGAGGCCGCCGTCGCAGCGCAGAGGGCACCGGCGGGGAGACGCGAGGACGCGGGGCCGGGAACACGGACGCCGGAGTAGAAGCGCGGGGGGGGCGGGCTGGAGCGGGGGCGGGGACGCCGGGGTCGGGGGCGGTGCGGGTTTGAGGGGAGGGGGCGGGGCGGGTCCTTCCCTGGGGGGGTGGGGAGAGGGGGCGGGGGCCCATGTGACCGGCTCAGACCGGTTCTGGAGACAAAAGGGGCCGCGGCGGCCGGAGCGGGACGGGCCCGGCGCGGGAGGGAGCGAAGCAGCGCGGGCAGCGAGCGAGTGAG
# Key:
# normal MRC-5 cells = assay: In vitro sensitivity to GCV of promoter-TK gene-introduced cells (Cell Counting Kit-8 survival); type: cell-based, human; details: HSV-TK gene controlled by the promoter, GCV seven days, FIG. 2A
# Experimental: (§1) (1) In order to examine cytotoxic effects by the transcription activity of the promoter obtained from the midkine gene, herpes simplex virus thymidine kinase (HSV-TK), a suicide gene, was ligated downstream of MK0.6 and MK2.3, and the plasmid was introduced in cells, and a prodrug gancyclovir (GCV) was added into the culture medium of the gene-introduced cells. The method of determining the cytotoxic effect by this system is as described in Moolten, FL. Cancer Gene Ther., 1:279–287, 1994.
# (§2) First, the CMV promoter of pcDNA3 (manufactured by Invitrogen) was removed using NruI and HindIII sites, to which MK2.3 or Mk0.6 was inserted, and then using the EcoRV site, the HSV-TK gene excised from pMK (Brinster, R L et al., Cell, 27:223–231, 1981) with BglI and EcoRI was inserted. Each of the plasmids thus obtained (MK2.3-TK and MK0.6-TK) was introduced, as described above, using lipofectin into MRC-5 which are normal cells, or MRC-5 cells that had been immortalized by inactivating the functions of the p53 tumor suppressor gene. In order to utilize the expression of the Neo gene contained in pcDNA3 as drug resistant markers, the cells were cultured with 400 μg/ml of G418 (manufactured by Life Technologies) for ten days to establish the cells that expressed MK2.3-TK and MK0.6-TK, respectively. These cells were then plated at 500 cells/well of 96-well culture plates, and were cultured in the presence of various concentrations of GCV (manufactured by F. Hoffman-La Roche) for seven days. The survival rate of the cells was examined using the Cell Counting Kit-8 (manufactured by Dojin Kagaku). The survival of the cells at a GCV concentration of 0 μg/ml was set as 100%, and the survival for each experiment group is shown in terms of percentage in FIG. 2A and FIG. 2B.
# [1] = system: immortalized MRC-5 cells (p53 functions inactivated); assay: as above; type: cell-based, human; details: HSV-TK gene powered by the promoter, GCV seven days, FIG. 2B
# Experimental: as §1, §2
# [2] = system: lung cancer cells QG-56, neuroblastoma NGP; assay: CAT assay of promoter transcription activity, tumor cells; type: cell-based, human; details: tumor cells versus normal cells
# Experimental: Using the above plasmid, or a plasmid pCAT-Control (manufactured by Promega) having the promoter of SV40 virus, and a plasmid pCAT-Basic (manufactured by Promega) containing no promoters, gene introduction was performed on the lung cancer cells QG-56, the neuroblastoma NGP, and the normal human fibroblasts MRC-5 that were being cultured in a DMEM (Sigma) supplemented with 10% bovine fetal serum. After 10 μg each of these plasmids and lipofectin (Life Technologies) were mixed, it was allowed to stand at room temperature for 30 minutes to form a complex. Then the complex, after removing the bovine fetal serum therefrom, was contacted with the cells. Eight hours later culture medium supplemented with bovine fetal serum was added, cultured for 40 hours, and then the gene-introduced cells were disrupted by ultrasonication. After centrifugation, the supernatants were used to examine their transcription activities with the known CAT assay method (Gorman, C M et al., Mol. Cell. Biol., 2:1044–1051, 1982) using [^14C]-chloramphenicol and acetyl CoA. At this time, in order to normalize the efficiency of gene introduction, 1 μg of the β-galactosidase gene (pCH110, manufactured by Amersham) was introduced at the same time, and the β-galactosidase activity (Heromel, P. et al., Cell, 39:653–662, 1984) was determined.
# [3] = system: normal human fibroblasts HEF, MRC-5; assay: Luciferase assay of c-erbB-2 promoter activity, normal fibroblasts; type: cell-based; details: FIG. 7B
# Experimental: (§3) With the transcription initiation site of the c-erbB-2 gene as +1, DNA that corresponded to a genomic region (p533) from −435 to +38 and that had the sequence set forth in SEQ ID NO: 7 was amplified by the PCR method, and then the DNA fragment was integrated into the pGEM-TEasy (manufactured by Promega), and the sequences of the PCR product was determined. Thus, after inserting this PCR product into the SmaI site of pGL2-Basic (manufactured by Promega), it was cleaved with BlnI/SmaI, PstI/SmaI, and BssHII/SmaI using the restriction enzyme sites present on the c-erbB-2 genomic gene to construct plasmids in which the genomic regions of c-erbB-2, p344 (−306/+38) (DNA having the base sequence set forth in SEQ ID NO: 8), p251 (−213/+38) (DNA having the base sequence set forth in SEQ ID NO: 9) and p124 (−86/+38) (DNA having the base sequence set forth in SEQ ID NO: 10) are localized upstream of the Firefly luciferase gene, respectively. Using the plasmid pGL2-Control (manufactured by Promega) having the promoter of SV40 virus and the plasmid pGL2-Basic (manufactured by Promega) containing no promoters, gene introduction was performed in human breast cancer cells OCUBM, MCF7, BT549, normal human fibroblasts HEF, MRC-5, human malignant melanoma A875, and human lung cancer cells QG-56, all of which were cultured in DMEM (Sigma) supplemented with 10% bovine fetal serum. Firstly, after 10 μg each of these plasmids and lipofectin (Life Technologies) were mixed, it was allowed to stand at room temperature for 30 minutes to form a complex of DNA and lipid. Then the complex, after removing the bovine fetal serum therefrom, was contacted with the cells. Eight hours later culture medium supplemented with bovine fetal serum was added. After 48 hours-culture, the cells were disrupted using the Dual-Luciferase Reporter Assay System (manufactured by Promega), and the Firefly luciferase activity therein was determined using the reagents in the same kit. In order to normalize the efficiency of gene introduction, 1 μg of pRL-TK plasmid (manufactured by Promega) was included in each gene-introduced group, and the Renilla luciferase activity by the TK promoter was determined, based on which the Firefly luciferase activity was corrected.
# [4] = system: human malignant melanoma A875, human lung cancer cells QG-56; assay: Luciferase assay of c-erbB-2 promoter activity, non-breast tumor cells; type: cell-based; details: human malignant melanoma cells and human lung cancer cells; FIG. 7C
# Experimental: as §3
# [5] = system: human breast cancer cells OCUBM, MCF7, BT549; assay: Luciferase assay of c-erbB-2 promoter activity, breast cancer cells; type: cell-based; details: FIG. 7A
# Experimental: as §3, with “Then the complex, after removing the bovine fetal serum therefrom, was contacted with the cells. Eight hours later culture medium supplemented with bovine fetal serum was added.” left out
Molecule,tumor-specificity of promoter activity [2],promoter activity compared with SV40 promoter [3],transcription activity compared with SV40 promoter [4],also measured
"MK2.3: 2.3 kb of the human midkine genomic gene, base sequence SEQ ID NO: 3; previously reported promoter [reference compound]",weak,–,–,sensitivity to GCV compared to that of the parent strain (normal MRC-5 cells): 500 fold; sensitivity to GCV compared to that of the parent strain [1]: 1000 fold
B1,–,more potent than the SV40 promoter activity in some cases,lower than the SV40 promoter,–
B2,–,–,lower than the SV40 promoter,transcription activity compared with other c-erbB-2 promoter fragments [5]: marked low compared with the p251 promoter
B3,–,more potent than the SV40 promoter activity in some cases,–,–
B4,weak,–,–,–
